How the values were obtained:
[1] = tested on: ZFN SBS53853 (engineered); experiment: cell_activity; conditions: pair with SBS55266, TCRA ZFN only, human T cells
human CD19 (human) = human CD19 (human) (UniProt P15391); experiment: cell-based or functional assay
[2] = tested on: ZFN SBS57071 (engineered); experiment: cell_activity; conditions: pair with SBS57531, B2M ZFN only, human T cells
[3] = tested on: ZFN SBS59488 (engineered); experiment: cell_activity; conditions: pair with SBS59489, multiplex with TRAC and B2M ZFNs plus GFP donor, T cells
[4] = tested on: ZFN SBS68876 (engineered); experiment: cell_activity; conditions: pair with SBS68877, human T cells
[5] = tested on: ZFN SBS68812 (engineered); experiment: cell_activity; conditions: pair with SBS68813, multiplex with B2M and CISH ZFNs plus GFP donor, T cells
[6] = tested on: ZFN SBS57531 (engineered); experiment: cell_activity; conditions: pair with SBS57071, B2M ZFN only, human T cells
[7] = tested on: ZFN SBS59489 (engineered); experiment: cell_activity; conditions: pair with SBS59488, multiplex with TRAC and B2M ZFNs plus GFP donor, T cells

“AACAGGTAAGACAGGGGTCTAGCCTGGG (double strand) [TCRA site 53853]” showed an activity [1] of 88.3 % indels.
“FMC63-CD8BBZ (CD19 CAR) (from UniProt P01732 138-206; Q07011 214-255; P20963 52-164)” gave a CD19+ K562 cells remaining after co-culture with CAR T cells at effector:target 2:1 (CAR inserted at the B2M gene) (human CD19 (human)) of 0.4% and a CD19+ K562 cells remaining after co-culture with CAR T cells at effector:target 2:1 (CAR inserted at the TCRA gene) (human CD19 (human)) of 0.1%.
“GCCACGGAGCGAGACATCTCGGCCCGAA (double strand) [B2M site 57071]” was tested, and the activity [2] was 86.6 % indels.
“GGAAGGCCCCAGCAGGCAAGGGCTGCAT (double strand) [CISH site 59488]” gave an activity [3] of 98 % knockout.
Work on “CTCCTGAAAGTGGCCGGGTTTAATCTGC (double strand) [TCRA site 68812/68876]” yielded an activity (% knockout (CD3 loss)) [4] of 97 and an activity [5] of 93 % knockout.
In the case of “GAGTAGCGCGAGCACAGCTAAGGCCACG (double strand) [B2M site 57531]”, the activity [6] is reported as 86.6 % indels.
“GAGGAGGTGGCAGAGGGTACCCCAGCCC (double strand) [CISH site 59489]” gave an activity [7] of 98 % knockout.

Reference: patent US20190048060A1
